# Data reported in patent US20180318386A1, “PEPTIDES AND METHODS OF TREATING ENDOMETRIOSIS USING THE SAME” (BIOINCEPT, LLC, priority 2014, published 2018).
# Tests used:
# [1] = target: Hepatoma-derived growth factor (human) (UniProt P51858); assay: PIF affinity resin pull-down, CD8+ cell lysate, LC-MS/MS count
# [2] = target: Serine/arginine-rich-splicing factor 1 (human) (UniProt Q07955); assay: as above
# [3] = target: Serum albumin (human) (UniProt P02768); assay: as above
# [4] = target: Actin, cytoplasmic 1 (human) (UniProt P60709); assay: as above
# [5] = target: Isoform Short of 14-3-3 protein beta/alpha (human) (UniProt P31946); assay: PIF affinity resin pull-down, CD14+ cell lysate, LC-MS/MS count
# Sequence of Isoform Short of 14-3-3 protein beta/alpha (human) (P31946 3-246 limits assumed): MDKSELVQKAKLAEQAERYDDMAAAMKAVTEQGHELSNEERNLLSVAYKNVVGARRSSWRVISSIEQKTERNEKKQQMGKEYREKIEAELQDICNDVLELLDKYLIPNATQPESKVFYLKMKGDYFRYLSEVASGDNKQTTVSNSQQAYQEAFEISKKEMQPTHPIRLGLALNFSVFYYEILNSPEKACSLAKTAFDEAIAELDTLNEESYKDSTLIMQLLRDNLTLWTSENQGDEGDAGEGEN
# [6] = target: Centrosomal protein of 120 kDa (Fragment) (human) (UniProt Q8N960); assay: as above
# [7] = target: Isoform 2 of Ras suppressor protein 1 (human) (UniProt Q15404); assay: as above
# Sequence of Isoform 2 of Ras suppressor protein 1 (human) (Q15404 54-277 limits assumed): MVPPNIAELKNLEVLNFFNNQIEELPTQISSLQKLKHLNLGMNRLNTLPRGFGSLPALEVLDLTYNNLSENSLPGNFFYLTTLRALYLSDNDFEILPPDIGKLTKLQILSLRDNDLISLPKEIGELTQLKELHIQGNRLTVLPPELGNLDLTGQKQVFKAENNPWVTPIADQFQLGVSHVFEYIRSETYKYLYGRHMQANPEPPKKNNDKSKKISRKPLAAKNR
# [8] = target: Myeloid cell nuclear differentiation antigen (human) (UniProt P41218); assay: as above
# Sequence of Myeloid cell nuclear differentiation antigen (human) (P41218 whole entry): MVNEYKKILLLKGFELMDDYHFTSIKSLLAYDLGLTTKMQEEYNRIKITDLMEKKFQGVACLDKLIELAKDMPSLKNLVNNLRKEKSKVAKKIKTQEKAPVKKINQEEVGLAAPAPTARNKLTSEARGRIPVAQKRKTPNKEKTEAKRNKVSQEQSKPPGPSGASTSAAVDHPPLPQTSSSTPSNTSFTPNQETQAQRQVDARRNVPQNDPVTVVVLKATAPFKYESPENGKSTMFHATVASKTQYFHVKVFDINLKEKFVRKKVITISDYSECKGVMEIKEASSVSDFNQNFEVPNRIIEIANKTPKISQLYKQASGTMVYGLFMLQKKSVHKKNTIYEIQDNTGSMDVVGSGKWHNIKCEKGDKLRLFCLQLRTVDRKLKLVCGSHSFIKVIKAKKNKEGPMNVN
# [9] = target: Nuclear autoantigenic sperm protein (human) (UniProt P49321); assay: as above
# [10] = target: Gelsolin (human) (UniProt P06396); assay: as above
# [11] = target: Tropomyosin alpha-4 chain (human) (UniProt P67936); assay: as above
# [12] = target: Tropomodulin-3 (human) (UniProt Q9NYL9); assay: as above
# Sequence of Tropomodulin-3 (human) (Q9NYL9 whole entry): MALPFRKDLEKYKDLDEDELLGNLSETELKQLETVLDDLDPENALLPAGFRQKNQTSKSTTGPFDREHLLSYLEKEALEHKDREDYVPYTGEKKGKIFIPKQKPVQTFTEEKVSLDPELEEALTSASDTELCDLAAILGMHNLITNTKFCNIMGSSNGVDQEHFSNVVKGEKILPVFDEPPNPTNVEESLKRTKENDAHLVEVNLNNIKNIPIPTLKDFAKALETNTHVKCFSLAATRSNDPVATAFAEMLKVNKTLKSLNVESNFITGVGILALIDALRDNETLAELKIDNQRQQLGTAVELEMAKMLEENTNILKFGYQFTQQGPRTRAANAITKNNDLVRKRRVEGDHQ
# [13] = target: Annexin A1 (human) (UniProt P04083); assay: as above
# Sequence of Annexin A1 (human) (P04083 2-346 limits assumed): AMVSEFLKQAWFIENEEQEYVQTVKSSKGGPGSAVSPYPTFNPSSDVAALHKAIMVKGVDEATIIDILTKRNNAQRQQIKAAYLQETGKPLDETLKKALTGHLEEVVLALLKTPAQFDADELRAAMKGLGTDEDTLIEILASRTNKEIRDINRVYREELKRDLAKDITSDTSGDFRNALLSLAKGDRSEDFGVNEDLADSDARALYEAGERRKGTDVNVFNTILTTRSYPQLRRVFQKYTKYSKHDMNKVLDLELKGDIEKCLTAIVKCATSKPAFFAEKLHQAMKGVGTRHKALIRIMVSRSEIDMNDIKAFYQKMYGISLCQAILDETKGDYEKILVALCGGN
# [14] = target: Isoform 1 of Vinculin (human) (UniProt P18206); assay: as above
# Sequence of Isoform 1 of Vinculin (human) (P18206 other isoform, or with tags, fused parts or gaps limits assumed): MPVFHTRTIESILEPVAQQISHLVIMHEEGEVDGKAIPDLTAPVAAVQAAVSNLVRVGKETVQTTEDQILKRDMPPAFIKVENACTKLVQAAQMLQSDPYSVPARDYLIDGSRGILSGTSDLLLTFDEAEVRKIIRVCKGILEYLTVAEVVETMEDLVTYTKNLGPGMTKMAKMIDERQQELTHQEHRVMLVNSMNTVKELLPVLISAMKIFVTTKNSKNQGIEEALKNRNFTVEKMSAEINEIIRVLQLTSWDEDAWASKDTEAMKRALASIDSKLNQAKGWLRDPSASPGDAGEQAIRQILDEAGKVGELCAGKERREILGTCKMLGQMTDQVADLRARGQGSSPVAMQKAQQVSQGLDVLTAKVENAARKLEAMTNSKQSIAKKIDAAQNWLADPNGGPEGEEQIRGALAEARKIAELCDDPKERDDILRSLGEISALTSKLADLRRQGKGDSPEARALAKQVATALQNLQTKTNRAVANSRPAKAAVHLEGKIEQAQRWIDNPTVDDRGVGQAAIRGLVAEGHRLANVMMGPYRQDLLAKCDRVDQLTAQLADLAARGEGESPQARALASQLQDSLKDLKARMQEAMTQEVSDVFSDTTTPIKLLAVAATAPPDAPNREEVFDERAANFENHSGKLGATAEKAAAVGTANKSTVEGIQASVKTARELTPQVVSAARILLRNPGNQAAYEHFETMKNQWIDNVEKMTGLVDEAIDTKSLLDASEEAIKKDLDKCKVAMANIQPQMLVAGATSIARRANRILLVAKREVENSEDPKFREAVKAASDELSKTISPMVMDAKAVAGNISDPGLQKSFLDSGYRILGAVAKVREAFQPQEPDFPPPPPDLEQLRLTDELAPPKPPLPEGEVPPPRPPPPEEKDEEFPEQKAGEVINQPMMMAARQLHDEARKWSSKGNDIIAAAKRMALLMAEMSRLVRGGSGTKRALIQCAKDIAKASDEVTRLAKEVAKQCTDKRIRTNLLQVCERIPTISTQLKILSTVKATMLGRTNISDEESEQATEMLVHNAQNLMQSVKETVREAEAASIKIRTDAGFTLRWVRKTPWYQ
# [15] = target: Protein S100-A8 (human) (UniProt P05109); assay: as above
# Sequence of Protein S100-A8 (human) (P05109 whole entry): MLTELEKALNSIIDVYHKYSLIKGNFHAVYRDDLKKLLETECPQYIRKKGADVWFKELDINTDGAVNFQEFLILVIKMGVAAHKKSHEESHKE
# [16] = target: Calreticulin (human) (UniProt P27797); assay: as above
# [17] = target: Actin, cytoplasmic 2 (human) (UniProt P63261); assay: as above
# [18] = target: Thymosin alpha-1 (human) (UniProt P06454); assay: as above
# Sequence of Thymosin alpha-1 (human) (P06454 other isoform, or with tags, fused parts or gaps limits assumed): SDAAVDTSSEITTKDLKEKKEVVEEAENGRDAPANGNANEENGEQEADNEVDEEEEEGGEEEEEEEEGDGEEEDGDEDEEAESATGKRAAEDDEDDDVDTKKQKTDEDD
# [19] = target: Filamin-A (human) (UniProt P21333); assay: as above
# [20] = target: Isoform H14 of Myeloperoxidase (human) (UniProt P05164); assay: as above
# Sequence of Isoform H14 of Myeloperoxidase (human) (P05164 165-745 limits assumed): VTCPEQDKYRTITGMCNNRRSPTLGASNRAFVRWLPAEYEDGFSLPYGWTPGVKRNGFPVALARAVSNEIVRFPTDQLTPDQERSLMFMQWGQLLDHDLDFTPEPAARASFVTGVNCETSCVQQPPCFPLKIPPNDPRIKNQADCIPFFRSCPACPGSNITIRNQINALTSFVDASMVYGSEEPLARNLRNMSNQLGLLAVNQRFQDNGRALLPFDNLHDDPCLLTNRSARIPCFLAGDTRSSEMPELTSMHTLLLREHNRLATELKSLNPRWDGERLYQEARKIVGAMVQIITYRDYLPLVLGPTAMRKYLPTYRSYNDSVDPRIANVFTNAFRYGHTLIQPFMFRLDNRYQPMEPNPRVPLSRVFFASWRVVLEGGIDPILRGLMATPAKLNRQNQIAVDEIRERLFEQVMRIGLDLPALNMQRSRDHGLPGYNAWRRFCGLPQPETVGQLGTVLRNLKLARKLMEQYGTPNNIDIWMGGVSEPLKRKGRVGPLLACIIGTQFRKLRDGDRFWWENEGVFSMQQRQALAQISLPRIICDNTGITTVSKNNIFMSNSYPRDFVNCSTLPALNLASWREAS
# [21] = target: Isoform SV of 14-3-3 protein epsilon (human) (UniProt P62258); assay: as above
# Sequence of Isoform SV of 14-3-3 protein epsilon (human) (P62258 23-255 limits assumed): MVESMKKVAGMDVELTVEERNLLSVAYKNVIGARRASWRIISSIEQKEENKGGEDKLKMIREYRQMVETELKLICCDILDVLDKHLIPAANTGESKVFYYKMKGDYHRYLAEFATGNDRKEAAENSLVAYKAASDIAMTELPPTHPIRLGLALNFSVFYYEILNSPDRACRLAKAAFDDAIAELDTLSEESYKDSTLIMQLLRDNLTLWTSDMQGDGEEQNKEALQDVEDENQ
# [22] = target: Protein disulfide-isomerase A4 (human) (UniProt P13667); assay: as above
# Sequence of Protein disulfide-isomerase A4 (human) (P13667 21-645 limits assumed): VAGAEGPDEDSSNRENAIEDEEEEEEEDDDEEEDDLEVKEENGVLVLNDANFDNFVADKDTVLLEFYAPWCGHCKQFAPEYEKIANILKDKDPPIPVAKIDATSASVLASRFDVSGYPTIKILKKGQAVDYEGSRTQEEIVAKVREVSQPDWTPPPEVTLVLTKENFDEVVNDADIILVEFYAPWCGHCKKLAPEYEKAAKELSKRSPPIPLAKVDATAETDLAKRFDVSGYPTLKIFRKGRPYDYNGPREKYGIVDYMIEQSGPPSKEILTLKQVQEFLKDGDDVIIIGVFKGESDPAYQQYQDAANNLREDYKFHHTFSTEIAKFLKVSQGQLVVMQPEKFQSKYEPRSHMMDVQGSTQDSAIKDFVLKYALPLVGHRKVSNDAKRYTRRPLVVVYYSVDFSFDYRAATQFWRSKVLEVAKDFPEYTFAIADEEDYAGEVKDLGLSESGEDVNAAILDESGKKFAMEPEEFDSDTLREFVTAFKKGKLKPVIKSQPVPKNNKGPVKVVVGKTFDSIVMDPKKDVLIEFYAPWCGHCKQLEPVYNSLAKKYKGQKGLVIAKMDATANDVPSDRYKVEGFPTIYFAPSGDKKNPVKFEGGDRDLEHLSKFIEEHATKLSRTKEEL
# [23] = target: Histone H4 (human) (UniProt P62805); assay: as above
# [24] = target: Protein disulfide-isomerase (human) (UniProt P07237); assay: as above
# Sequence of Hepatoma-derived growth factor (human) (P51858 whole entry): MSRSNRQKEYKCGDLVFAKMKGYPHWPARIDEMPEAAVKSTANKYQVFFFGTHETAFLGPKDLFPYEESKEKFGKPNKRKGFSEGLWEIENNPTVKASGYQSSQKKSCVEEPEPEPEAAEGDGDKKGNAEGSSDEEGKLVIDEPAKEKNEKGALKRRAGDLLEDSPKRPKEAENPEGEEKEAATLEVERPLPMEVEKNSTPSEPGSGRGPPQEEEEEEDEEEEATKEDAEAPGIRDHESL
# Sequence of Serine/arginine-rich-splicing factor 1 (human) (Q07955 2-248 limits assumed): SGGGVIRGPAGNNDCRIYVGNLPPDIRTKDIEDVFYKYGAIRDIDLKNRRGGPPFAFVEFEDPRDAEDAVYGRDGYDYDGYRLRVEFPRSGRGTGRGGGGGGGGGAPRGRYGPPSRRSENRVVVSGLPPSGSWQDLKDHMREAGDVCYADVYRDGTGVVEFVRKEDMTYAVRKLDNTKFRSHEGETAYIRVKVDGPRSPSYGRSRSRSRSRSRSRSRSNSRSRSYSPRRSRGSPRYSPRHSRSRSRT
substance,measurement,setting,value
PIF15 affinity resin (Cys-C6 spacer-PIF15 conjugated to agarose) (peptide),Ave,[1],1
same,Inject 1,[1],1
same,Inject 2,[1],1
same,Inject 3,[1],1
same,Ave,[2],1
same,Inject 1,[2],1
same,Inject 2,[2],1
same,Inject 3,[2],1
same,Ave,[3],6
same,Inject 1,[3],3
same,Inject 2,[3],6
same,Inject 3,[3],8
same,Ave,[4],3
same,Inject 1,[4],3
same,Inject 2,[4],3
same,Inject 3,[4],3
same,Ave,[5],3
same,Inject 1,[5],3
same,Inject 2,[5],3
same,Inject 3,[5],4
same,Ave,[6],1
same,Inject 1,[6],2
same,Inject 2,[6],0
same,Inject 3,[6],0
same,Ave,[7],1
same,Inject 1,[7],0
same,Inject 2,[7],1
same,Inject 3,[7],2
same,Ave,[8],2
same,Inject 1,[8],2
same,Inject 2,[8],2
same,Inject 3,[8],2
same,Ave,[9],1
same,Inject 1,[9],2
same,Inject 2,[9],0
same,Inject 3,[9],1
same,Ave,[10],2
same,Inject 1,[10],3
same,Inject 2,[10],1
same,Inject 3,[10],1
same,Ave,[11],8
same,Inject 1,[11],8
same,Inject 2,[11],7
same,Inject 3,[11],8
same,Ave,[12],1
same,Inject 1,[12],1
same,Inject 2,[12],2
same,Inject 3,[12],1
same,Ave,[13],1
same,Inject 1,[13],0
same,Inject 2,[13],0
same,Inject 3,[13],2
same,Ave,[14],3
same,Inject 1,[14],3
same,Inject 2,[14],2
same,Inject 3,[14],3
same,Ave,[15],2
same,Inject 1,[15],2
same,Inject 2,[15],1
same,Inject 3,[15],2
same,Ave,[16],6
same,Inject 1,[16],7
same,Inject 2,[16],4
same,Inject 3,[16],6
same,Ave,[17],7
same,Inject 1,[17],6
same,Inject 2,[17],7
same,Inject 3,[17],7
same,Ave,[18],5
same,Inject 1,[18],5
same,Inject 2,[18],5
same,Inject 3,[18],4
same,Ave,[19],5
same,Inject 1,[19],5
same,Inject 2,[19],3
same,Inject 3,[19],7
same,Ave,[20],2
same,Inject 1,[20],2
same,Inject 2,[20],2
same,Inject 3,[20],2
same,Ave,[21],3
same,Inject 1,[21],4
same,Inject 2,[21],4
same,Inject 3,[21],2
same,Ave,[22],2
same,Inject 1,[22],4
same,Inject 2,[22],1
same,Inject 3,[22],2
same,Ave,[23],2
same,Inject 1,[23],3
same,Inject 2,[23],0
same,Inject 3,[23],2
same,Ave,[24],2
same,Inject 1,[24],3
same,Inject 2,[24],2
same,Inject 3,[24],2
